Measurements reported in article PMC3736172 (Scientific Reports, 2013).
Like-named read-outs stand apart in the source and are kept apart here.

How the values were obtained:
[1] = molecular target: T1, SPase (Rhodopirellula baltica, UniProt Q7UIS9); assay: turnover to fructose and glucose-1-phosphate; type: cell-based; details: recombinant enzyme
T1 sequence (Q7UIS9 1-571): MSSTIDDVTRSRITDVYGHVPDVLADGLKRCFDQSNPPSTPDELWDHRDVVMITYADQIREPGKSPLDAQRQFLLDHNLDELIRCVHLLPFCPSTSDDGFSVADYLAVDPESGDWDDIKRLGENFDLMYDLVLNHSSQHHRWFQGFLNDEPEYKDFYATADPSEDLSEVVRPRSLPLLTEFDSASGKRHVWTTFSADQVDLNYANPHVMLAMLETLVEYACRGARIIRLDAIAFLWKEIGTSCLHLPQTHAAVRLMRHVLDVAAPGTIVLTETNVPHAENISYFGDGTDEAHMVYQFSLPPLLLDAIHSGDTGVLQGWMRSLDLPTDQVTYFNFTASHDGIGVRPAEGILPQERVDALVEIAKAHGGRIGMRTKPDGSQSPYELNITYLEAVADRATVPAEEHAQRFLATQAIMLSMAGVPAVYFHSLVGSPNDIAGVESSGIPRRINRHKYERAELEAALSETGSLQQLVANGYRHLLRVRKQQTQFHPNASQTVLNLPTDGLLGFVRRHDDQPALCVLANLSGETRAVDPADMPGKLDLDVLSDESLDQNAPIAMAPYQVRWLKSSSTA

[2] = molecular target: the molecule itself; assay: SEC
[3] = molecular target: the molecule itself; assay: SEC; remark: listed apart in the source

Q: How did the “turnover to fructose and glucose-1-phosphate” value [1] turn out when OC[C@H]1O[C@@](CO)(O[C@H]2O[C@H](CO)[C@@H](O)[C@H](O)[C@H]2O)[C@@H](O)[C@@H]1O [sucrose] was run?
A: it catalyzed the conversion of sucrose to fructose and glucose-1-phosphate

B1: mannosylglucosyl-3-phosphoglycerate synthase (MggA) from Rhodopirellula baltica, recombinant (enzyme)
chain: MKISAMKILIVHCHFERGGVTQVVDNHVHCLQGSDEIDEVALVSGPRQSGLQETTRSSASIWRIASLEYDSLRDTSLNVDEQAQNDKQAQHTAREIDERCRQAGWTRQETVVHWHNHSLGKNAASPLVIKHLADFGYSCLLQIHDFAEDQRPQNWAYLKQSHGCEKASELDAILYPHGDRLSYATLTTGDAETLVQFGIHRSRVDVLPNSVRLPTDELPEFEVATHKVQRAFDLPADFRWMLYPVRGIRRKNLGEFLLMCQLAGRPTIGAMTLMPDTPMEKRSYERWQAVAERCVENVVFNAAHHEDIQFVDNLSAASVVVSSSVAEGFGMVFLEPWLASRSVVARNLPGVTGDFINHGMRLEHLYDAVQIPGSHSWLTEANRQFQNAKTDAWKDVRRDVETALSPSASDQSISDANEWIDFARLTPAMQIEVLVRFNTDSGFAKEVRDRNAALCDALVTDARPEIIDYNRNIVAANFGPENQKQQLLNAYRKAISNESIPGTGVQNDQTMLELVENSRPFYPCRVEQLD
Q: How did the “stoichiometry N” value [2] turn out when B1 was run?
A: 2

B2: glucosyl-3-phosphoglycerate synthase (GpgS) from Rhodopirellula baltica, recombinant 398-amino acid enzyme (enzyme)
chain: PDFYQHDMITTIHDLRSAKLDNLESMLRESTRNHDIGLVLPVTASDMRAEPFDVIVRELAQADYIASIVVSLGVAPDQSDYDETCAKIAPLGDRAKVLWTDGPEVQGLYNELIESGIDVSVPGKGRSVWTAFGYLLDDPDIETFVLHDCDIVDYDRQLLTRLCLPMVHPGLDFEFCKAYYARVTDRMHGRVVRLLVAPLLRALMQCFPENQFVRFLGNFRYPLSGEFSLTRNLARTNRVASDWGLEVGTLADVYRNTSHKRVCQVDLARLYEHKHQTLAVDQPSSGLIKMALDILTTIYRTLASQGIVFGESTFVTLRASFLRIAQDCIRQYAADARVNSLKYDRHSEEMAIEAFAQCVTQAGEIFAADPSGNPSIPNWTRVRAAFPDFTSRLRETVK
Q: For B2, which “stoichiometry N” value [3] is on record?
A: 5
